How the values were obtained:
Peptide (C4 and C2) = experiment: fluorescence titration, curve fitting
protein (GFP & Nanobody) = experiment: fluorescence titration, curve fitting

B1: VEPEP-3a (peptide)
peptide: XKWFERWFREWPRKRR
HELM: PEPTIDE1{[ac].[bAla].K.W.F.E.R.W.F.R.E.W.P.R.K.R.R.[SCCN[*:1]]}$$$$V2.0
SMILES: CC(=O)NCCC(=O)N[C@@H](CCCCN)C(=O)N[C@@H](Cc1c[nH]c2ccccc12)C(=O)N[C@@H](Cc1ccccc1)C(=O)N[C@@H](CCC(=O)O)C(=O)N[C@@H](CCCNC(=N)N)C(=O)N[C@@H](Cc1c[nH]c2ccccc12)C(=O)N[C@@H](Cc1ccccc1)C(=O)N[C@@H](CCCNC(=N)N)C(=O)N[C@@H](CCC(=O)O)C(=O)N[C@@H](Cc1c[nH]c2ccccc12)C(=O)N1CCC[C@H]1C(=O)N[C@@H](CCCNC(=N)N)C(=O)N[C@@H](CCCCN)C(=O)N[C@@H](CCCNC(=N)N)C(=O)N[C@@H](CCCNC(=N)N)C(=O)NCCS
For B1, the Kd (Peptide (C4 and C2)) was 10 to 20 nM and the Kd (protein (GFP & Nanobody)) was 1000 nM.

— US20190046652A1
